The test concerns the target murine c-Met polypeptide (Met receptor as expressed on DA3 mouse mammary adenocarcinoma cells) (mouse) (UniProt P16056). Put plainly: cell-based or functional assay.

This note sets out measurements from patent publication US7872117.

Substance “Hepatocyte growth factor/scatter factor (HGF/SF) (ligand)” came in with an in vitro invasion through Matrigel (invading cells per filter, DA3 cells, HGF/SF 100 ng/ml) (cells per filter) of 80.
